For one assay, the target named is HLA-A*30:01. Nature of the assay: IEDB peptide-MHC binding, purified MHC/competitive/fluorescence; filed as Kd, often an IC50 or EC50 that approximates it; ≥ and ≤ were set here for values at or beyond the usual limits of such assays. To be noted: source organism: Influenza A virus (A/X-31(H3N2)).
The target of a further assay is HLA-A*31:01. Nature of the assay: IEDB peptide-MHC binding, purified MHC/direct/fluorescence; filed as Kd, often an IC50 or EC50 that approximates it; ≥ and ≤ were set here for values at or beyond the usual limits of such assays.
Another assay concerns the target HLA-B*48:01. The description is as above. Particulars: source organism: Influenza A virus (A/chicken/Hubei/wm/1997(H5N1)).
For another assay, the target named is HLA-A*26:02. The assay is described as above. Particulars: source organism: Influenza A virus (A/Taiwan/2/2006(H1N1)).
The target in a further assay is HLA-A*26:01. The description is as above.
A further assay deals with HLA-B*40:01. The assay is described as above.
The next assay deals with HLA-B*46:01. The assay is described as above.
The next assay deals with HLA-A*02:01. Described as above.
The target of a further assay is HLA-A*01:01. The description is as above.
Another assay deals with HLA-B*27:05. Described as above.
A further assay concerns the target HLA-B*15:01. The assay is described as above.
The target of the next assay is HLA-B*15:17. The description is as above. Particulars: source organism: Influenza A virus (A/chicken/Hubei/wm/1997(H5N1)).
The target of the next assay is HLA-A*11:01. Described as above.
In the next assay the target is HLA-B*18:01. The description is as above.
The target of another assay is HLA-A*69:01. The description is as above.
Assay [1] deals with HLA-B*07:02. The description is as above.
The next assay deals with HLA-A*03:01. The description is as above.
Another assay has as its target HLA-B*58:01. Described as above.
Another assay addresses HLA-B*57:01. The description is as above. To be noted: source organism: Influenza A virus (A/chicken/Hubei/wm/1997(H5N1)).
A further assay addresses HLA-B*35:01. Nature of the assay: IEDB peptide-MHC binding, purified MHC/competitive/radioactivity; filed as Kd, often an IC50 or EC50 that approximates it; ≥ and ≤ were set here for values at or beyond the usual limits of such assays. Particulars: source organism: Vaccinia virus WR.
The target of a further assay is HLA-B*54:01. The description is as above. To be noted: source organism: Vaccinia virus WR.
The target in assay [2] is HLA-B*51:01. Described as above. Particulars: source organism: Vaccinia virus WR.
For the next assay, the target named is HLA-B*53:01. The assay is described as above. To be noted: source organism: Vaccinia virus WR.
Assay [3] deals with HLA-B*07:02. The description is as above. Particulars: source organism: Vaccinia virus WR.
A further assay has as its target HLA-C*05:01. As to the kind of experiment: IEDB peptide-MHC binding, purified MHC/direct/fluorescence; filed as Kd, often an IC50 or EC50 that approximates it; ≥ and ≤ were set here for values at or beyond the usual limits of such assays. To be noted: source organism: Variola virus.
The target of the next assay is HLA-A*24:02. Described as above.
Another assay deals with HLA-B*08:02. The assay is described as above.
Another assay addresses HLA-B*44:02. The description is as above.
Assay [4] has as its target HLA-B*08:01. Described as above.
Assay [5] addresses HLA-B*51:01. As to the kind of experiment: IEDB peptide-MHC binding, purified MHC/competitive/fluorescence; filed as Kd, often an IC50 or EC50 that approximates it; ≥ and ≤ were set here for values at or beyond the usual limits of such assays. Particulars: source organism: Yersinia mollaretii ATCC 43969.
Assay [6] deals with HLA-B*07:02. The description is as above. Particulars: source organism: Yersinia mollaretii ATCC 43969.
The target of assay [7] is HLA-B*08:01. Described as above. To be noted: source organism: Yersinia mollaretii ATCC 43969.
The mark [8] stands for this setting: source organism: Influenza A virus (A/chicken/Hubei/wm/1997(H5N1)).
Setting [9] is: source organism: Influenza A virus (A/swine/Korea/S190/2004(H9N2)).
Where [10] appears, read: source organism: Influenza A virus H3N2.
Where [11] appears, read: source organism: Influenza A virus (A/Puerto Rico/8/34/Mount Sinai(H1N1)).
Setting [12] is: source organism: Cryptosporidium parvum.
Setting [13] is: source organism: Influenza A virus (A/chicken/Vietnam/5/2003(H5N1)).
Where [14] appears, read: source organism: Influenza A virus(A/swine/Henan/3/2004(H9N2)).
Setting [15] is: source organism: Escherichia coli O157:H7.
Setting [16] is: source organism: Influenza A virus (A/Hong Kong/485/1997(H5N1)).

A word on the Kd: it is the equilibrium constant for the complex coming apart. Regarding EKPKFLPDL, the Kd with HLA-A*30:01, with HLA-A*31:01 (setting [8]), with HLA-B*48:01, with HLA-A*26:02, with HLA-A*26:01 (setting [8]) and with HLA-B*40:01 (setting [8]) was no less than 20 µM throughout. Moreover, the Kd in the assay with HLA-B*46:01 (setting [8]), with HLA-A*02:01 (setting [8]), with HLA-A*01:01 (setting [8]), with HLA-B*27:05 (setting [8]), with HLA-B*15:01 (setting [8]) and with HLA-B*15:17 was no less than 20 µM throughout. Also, the Kd with HLA-A*11:01 (setting [8]), in the assay with HLA-B*18:01 (setting [8]), in the assay with HLA-A*69:01 (setting [8]), in the assay with HLA-B*07:02 [1] (setting [8]), in the assay with HLA-A*03:01 (setting [8]) and with HLA-B*58:01 (setting [8]) was no less than 20 µM throughout. The sequence also showed a Kd with HLA-B*57:01 of no less than 20 µM.

Regarding LPMIIGEPI, the Kd with HLA-B*35:01 was 0.0645 µM; in the assay with HLA-B*54:01, 0.00157 µM; with HLA-B*51:01 [2], 0.00117 µM; in the assay with HLA-B*53:01 it was 0.0056 µM; with HLA-B*07:02 [3], 0.000255 µM; with HLA-C*05:01, no less than 20 µM.

ATTHSWIPK: the Kd with HLA-A*24:02 (setting [9]), with HLA-B*08:02 (setting [10]), in the assay with HLA-A*26:01 (setting [10]), with HLA-B*40:01 (setting [9]), with HLA-B*46:01 (setting [9]) and with HLA-A*02:01 (setting [9]) was no less than 20 µM in each case. Further, the Kd with HLA-A*01:01 (setting [9]), with HLA-B*27:05 (setting [9]), with HLA-B*44:02 (setting [9]), with HLA-B*15:01 (setting [9]), with HLA-B*18:01 (setting [9]) and with HLA-A*69:01 (setting [9]) was no less than 20 µM throughout. Moreover, the Kd with HLA-B*07:02 [1] (setting [9]) is no less than 20 µM; with HLA-B*08:01 [4] (setting [9]), no less than 20 µM; in the assay with HLA-A*03:01 (setting [11]) it was 0.826 µM; with HLA-B*58:01 (setting [9]), no less than 20 µM.

For MPMYAIHKV, the Kd is 1.14 µM with HLA-B*51:01 [5], 0.0267 µM in the assay with HLA-B*07:02 [6] and 1.87 µM with HLA-B*08:01 [7].

As to IINAHRIPK, the Kd in the assay with HLA-A*31:01 (setting [12]) is 0.0316 µM; with HLA-A*24:02 (setting [12]), no less than 20 µM; with HLA-A*26:01 (source organism: Cryptosporidium parvum Iowa II), no less than 20 µM; with HLA-B*40:01 (setting [12]), no less than 20 µM; with HLA-A*01:01 (setting [12]), no less than 20 µM; in the assay with HLA-B*27:05 (setting [12]), no less than 20 µM. The Kd was no less than 20 µM in the assay with HLA-B*44:02 (setting [12]); no less than 20 µM in the assay with HLA-B*15:01 (setting [12]); 0.0267 µM with HLA-A*11:01 (setting [12]); no less than 20 µM with HLA-B*18:01 (setting [12]); no less than 20 µM with HLA-A*69:01 (setting [12]); no less than 20 µM with HLA-B*07:02 [1] (setting [12]). The Kd was 0.0825 µM with HLA-A*03:01 (setting [12]) and no less than 20 µM in the assay with HLA-B*58:01 (setting [12]).

RVDKLTQGR: the Kd with HLA-A*24:02 (setting [13]), with HLA-B*08:02 (setting [14]), with HLA-A*26:01 (setting [14]), in the assay with HLA-B*40:01 (setting [13]), with HLA-B*46:01 (setting [13]) and with HLA-A*02:01 (setting [13]) was no less than 20 µM throughout. Also, the Kd with HLA-A*01:01 (setting [13]), in the assay with HLA-B*27:05 (setting [13]), with HLA-B*44:02 (setting [13]), in the assay with HLA-B*15:01 (setting [13]), in the assay with HLA-B*18:01 (setting [13]) and with HLA-A*69:01 (setting [13]) was no less than 20 µM each time. For the same sequence, the Kd was no less than 20 µM in the assay with HLA-B*07:02 [1] (setting [13]), no less than 20 µM with HLA-B*08:01 [4] (setting [13]), no less than 10 µM with HLA-A*03:01 (setting [11]) and no less than 20 µM with HLA-B*58:01 (setting [13]).

As for PILPKLFIL, the Kd was no less than 20 µM in the assay with HLA-A*24:02 (setting [15]); no less than 20 µM with HLA-B*40:01 (setting [15]); no less than 20 µM with HLA-B*46:01 (setting [15]); 5.7 µM with HLA-A*02:01 (setting [15]); no less than 20 µM with HLA-A*01:01 (setting [15]); no less than 20 µM in the assay with HLA-B*27:05 (setting [15]). Moreover, the Kd with HLA-B*44:02 (setting [15]), in the assay with HLA-B*15:01 (setting [15]), in the assay with HLA-B*18:01 (setting [15]), with HLA-B*07:02 [1] (setting [15]), in the assay with HLA-A*03:01 (setting [15]) and with HLA-B*58:01 (setting [15]) was no less than 20 µM each time.

QMRDVLGTF: the Kd with HLA-A*31:01 (setting [16]) was no less than 20 µM; with HLA-A*24:02 (setting [16]), no less than 20 µM; with HLA-A*26:01 (source organism: Influenza A virus (A/Hong Kong/507/97(H5N1))), 0.135 µM; in the assay with HLA-B*40:01 (setting [16]) it was no less than 20 µM; with HLA-A*02:01 (setting [16]) it was no less than 20 µM; with HLA-A*01:01 (setting [16]), no less than 20 µM. The Kd was no less than 20 µM in the assay with HLA-B*27:05 (setting [16]); no less than 20 µM with HLA-B*44:02 (setting [16]); 0.066 µM with HLA-B*15:01 (setting [11]); no less than 20 µM with HLA-A*11:01 (setting [16]); 0.381 µM with HLA-B*07:02 [1] (setting [11]); no less than 20 µM with HLA-A*03:01 (setting [16]). This sequence gave a Kd in the assay with HLA-B*58:01 (setting [16]) of no less than 20 µM.

The values are drawn from the Immune Epitope Database (IEDB).
